Key:
[1] = biological target: human IgG (human); experiment: human IgG binding to commercial gel support (epoxy-activated crosslinked agarose); elution, A280
[2] = biological target: human IgG (human); experiment: human IgG binding to commercial gel support (ligand at 6 mg/mL gel on epoxy-activated crosslinked agarose); elution, A280

Human IgG binding amount [1] [mg/mL gel]	Human IgG binding amount [2] [mg/mL gel]	Substance
45.5		tetramer of four linked Z domains of protein A with the introduced C-terminal cysteine residue (ligand of MabSelect SuRe, GE Healthcare Science) (designed binder)
	50.1	native sequence protein A with the introduced C-terminal cysteine (ligand of rProtein A-Sepharose FF, GE Healthcare Science) (from UniProt P38507 37-327)

— patent US20160215027A1
